In patent US6447996 one finds Ki data, which are given here for one substance.

pKi: −log10 of the molar value.

The pKi is the negative decadic logarithm of the Ki, by convention in mol/L. Lower therefore signals a high Ki.

The assay deals with human galanin receptor GalR1 (human) (UniProt P47211). Description: competition with 5x10^-11M [125I]galanin on membranes of Cos1 cells transfected with GalR1; Cheng-Prusoff.
UniProt P47211, sequence (P47211 other isoform, or with tags, fused parts or gaps): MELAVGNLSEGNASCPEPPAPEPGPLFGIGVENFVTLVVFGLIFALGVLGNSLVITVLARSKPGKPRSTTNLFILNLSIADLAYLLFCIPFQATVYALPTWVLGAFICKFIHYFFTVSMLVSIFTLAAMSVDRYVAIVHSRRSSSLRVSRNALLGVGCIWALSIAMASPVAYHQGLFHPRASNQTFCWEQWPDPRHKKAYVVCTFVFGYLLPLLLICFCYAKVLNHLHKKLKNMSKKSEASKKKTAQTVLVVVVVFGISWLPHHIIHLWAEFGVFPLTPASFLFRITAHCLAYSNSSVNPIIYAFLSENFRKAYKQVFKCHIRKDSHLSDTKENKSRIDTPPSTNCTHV

Turning to galanin 2-29 (peptide), the pKi was 6.94.
